Earlier results, collected in publication PMC2949527.

Biological target: RFX5(25-90)2·RFXAP(214-272) complex 25-90 + 214-272 (Homo sapiens) (UniProt P48382)
Sequence (P48382 2-616, chain 1 of 2): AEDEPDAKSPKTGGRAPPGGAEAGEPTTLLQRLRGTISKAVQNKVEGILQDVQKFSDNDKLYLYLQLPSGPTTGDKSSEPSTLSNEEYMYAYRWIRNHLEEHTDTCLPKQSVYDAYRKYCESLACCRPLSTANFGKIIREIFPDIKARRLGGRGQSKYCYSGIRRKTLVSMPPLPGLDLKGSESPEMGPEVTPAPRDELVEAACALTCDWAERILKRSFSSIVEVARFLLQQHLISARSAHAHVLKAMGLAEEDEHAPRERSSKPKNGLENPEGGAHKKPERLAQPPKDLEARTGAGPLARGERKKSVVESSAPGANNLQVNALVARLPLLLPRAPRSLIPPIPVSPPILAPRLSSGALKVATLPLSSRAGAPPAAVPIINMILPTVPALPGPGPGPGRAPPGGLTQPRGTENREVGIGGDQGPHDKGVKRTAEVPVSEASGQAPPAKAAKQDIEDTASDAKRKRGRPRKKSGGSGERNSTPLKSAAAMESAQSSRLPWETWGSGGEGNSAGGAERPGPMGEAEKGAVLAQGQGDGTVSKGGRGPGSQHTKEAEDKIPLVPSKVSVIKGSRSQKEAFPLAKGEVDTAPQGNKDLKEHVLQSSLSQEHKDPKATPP
Sequence (O00287 whole entry, chain 2 of 2, further chain): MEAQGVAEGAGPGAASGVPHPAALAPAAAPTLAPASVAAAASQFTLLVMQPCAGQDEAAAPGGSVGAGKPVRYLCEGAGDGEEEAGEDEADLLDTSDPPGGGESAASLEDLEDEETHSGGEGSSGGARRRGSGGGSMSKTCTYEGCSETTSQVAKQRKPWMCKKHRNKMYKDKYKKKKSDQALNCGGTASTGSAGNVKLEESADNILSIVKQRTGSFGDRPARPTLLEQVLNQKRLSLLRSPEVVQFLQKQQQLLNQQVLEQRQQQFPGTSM

Chain of RFXB (O14593 whole entry): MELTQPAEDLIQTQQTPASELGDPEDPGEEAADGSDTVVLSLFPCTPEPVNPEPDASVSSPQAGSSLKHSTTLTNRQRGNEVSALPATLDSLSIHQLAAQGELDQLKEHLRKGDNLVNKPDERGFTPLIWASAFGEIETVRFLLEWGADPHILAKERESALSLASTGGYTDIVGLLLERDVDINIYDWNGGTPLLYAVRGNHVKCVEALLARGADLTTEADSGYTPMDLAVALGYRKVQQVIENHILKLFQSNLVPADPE

- Kd: 76 nM
Substance: RFXB (from UniProt O14593)
